Laboratory results taken from publication PMC7810988 (2019).

Target: T1, OsSPX4^1–321 (rice, UniProt Q10B79 1-320)
T1 chain: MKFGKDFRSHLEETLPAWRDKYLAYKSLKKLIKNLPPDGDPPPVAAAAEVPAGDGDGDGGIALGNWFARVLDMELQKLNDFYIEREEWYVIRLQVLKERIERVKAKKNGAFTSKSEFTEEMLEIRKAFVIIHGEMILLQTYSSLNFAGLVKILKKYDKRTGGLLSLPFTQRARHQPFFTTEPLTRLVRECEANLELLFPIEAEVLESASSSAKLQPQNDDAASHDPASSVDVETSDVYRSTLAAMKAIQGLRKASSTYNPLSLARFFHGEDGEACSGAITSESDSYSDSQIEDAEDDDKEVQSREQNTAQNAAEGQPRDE
Experiment: ITC; 5PP-InsP5 (InsP7) 100 uM

B1: full-length OsPHR2 (OsPHR2^1-426, wild type) (natural protein)
chain: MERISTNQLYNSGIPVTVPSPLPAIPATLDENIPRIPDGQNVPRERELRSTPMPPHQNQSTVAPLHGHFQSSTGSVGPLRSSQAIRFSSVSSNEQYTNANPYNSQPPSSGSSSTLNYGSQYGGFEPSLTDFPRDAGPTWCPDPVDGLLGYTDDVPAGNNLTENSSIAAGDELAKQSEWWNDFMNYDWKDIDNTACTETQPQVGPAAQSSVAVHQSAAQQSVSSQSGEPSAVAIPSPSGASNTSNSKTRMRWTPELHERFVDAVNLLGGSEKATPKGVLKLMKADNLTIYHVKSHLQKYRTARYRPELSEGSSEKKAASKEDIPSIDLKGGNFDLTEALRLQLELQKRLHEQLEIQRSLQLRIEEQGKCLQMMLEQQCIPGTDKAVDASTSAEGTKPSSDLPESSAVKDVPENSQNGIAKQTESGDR
- Kd: 3.05 µM
